Two molecules from PMC6421407, “Activation of GCN2 by the ribosomal P-stalk” (Proceedings of the National Academy of Sciences of the …, 2019) can be followed below.

The target of series [1] is human general control nonderepressible 2 (GCN2), full-length, StrepII-tagged (human) (UniProt Q9P2K8).
Series [2] concerns the molecule itself. The experiment in a line: SEC-MALS; purified GCN2 in solution; 392 kDa measured against 384 kDa theoretical for a homodimer.

On to “ribosomes purified from rabbit reticulocyte lysate (from UniProt G1SPK4 1-318; P19943 1-44; G1TT27 1-257) (complex)”, for which, in series [1], the EC50 of stimulation of eIF2α phosphorylation by GCN2, titration of ribosomes was 0.025 µM and the fold stimulation of eIF2α phosphorylation by GCN2, titration of ribosomes was 20 fold.

B1: human general control nonderepressible 2 (GCN2), full-length, StrepII-tagged (enzyme, UniProt Q9P2K8 1-1649, looked up)
chain: MAGGRGAPGRGRDEPPESYPQRQDHELQALEAIYGADFQDLRPDACGPVKEPPEINLVLYPQGLTGEEVYVKVDLRVKCPPTYPDVVPEIELKNAKGLSNESVNLLKSRLEELAKKHCGEVMIFELAYHVQSFLSEHNKPPPKSFHEEMLERRAQEEQQRLLEAKRKEEQEQREILHEIQRRKEEIKEEKKRKEMAKQERLEIASLSNQDHTSKKDPGGHRTAAILHGGSPDFVGNGKHRANSSGRSRRERQYSVCNSEDSPGSCEILYFNMGSPDQLMVHKGKCIGSDEQLGKLVYNALETATGGFVLLYEWVLQWQKKMGPFLTSQEKEKIDKCKKQIQGTETEFNSLVKLSHPNVVRYLAMNLKEQDDSIVVDILVEHISGVSLAAHLSHSGPIPVHQLRRYTAQLLSGLDYLHSNSVVHKVLSASNVLVDAEGTVKITDYSISKRLADICKEDVFEQTRVRFSDNALPYKTGKKGDVWRLGLLLLSLSQGQECGEYPVTIPSDLPADFQDFLKKCVCLDDKERWSPQQLLKHSFINPQPKMPLVEQSPEDSEGQDYVETVIPSNRLPSAAFFSETQRQFSRYFIEFEELQLLGKGAFGAVIKVQNKLDGCCYAVKRIPINPASRQFRRIKGEVTLLSRLHHENIVRYYNAWIERHERPAGPGTPPPDSGPLAKDDRAARGQPASDTDGLDSVEAAAPPPILSSSVEWSTSGERSASARFPATGPGSSDDEDDDEDEHGGVFSQSFLPASDSESDIIFDNEDENSKSQNQDEDCNEKNGCHESEPSVTTEAVHYLYIQMEYCEKSTLRDTIDQGLYRDTVRLWRLFREILDGLAYIHEKGMIHRDLKPVNIFLDSDDHVKIGDFGLATDHLAFSADSKQDDQTGDLIKSDPSGHLTGMVGTALYVSPEVQGSTKSAYNQKVDLFSLGIIFFEMSYHPMVTASERIFVLNQLRDPTSPKFPEDFDDGEHAKQKSVISWLLNHDPAKRPTATELLKSELLPPPQMEESELHEVLHHTLTNVDGKAYRTMMAQIFSQRISPAIDYTYDSDILKGNFSIRTAKMQQHVCETIIRIFKRHGAVQLCTPLLLPRNRQIYEHNEAALFMDHSGMLVMLPFDLRIPFARYVARNNILNLKRYCIERVFRPRKLDRFHPKELLECAFDIVTSTTNSFLPTAEIIYTIYEIIQEFPALQERNYSIYLNHTMLLKAILLHCGIPEDKLSQVYIILYDAVTEKLTRREVEAKFCNLSLSSNSLCRLYKFIEQKGDLQDLMPTINSLIKQKTGIAQLVKYGLKDLEEVVGLLKKLGIKLQVLINLGLVYKVQQHNGIIFQFVAFIKRRQRAVPEILAAGGRYDLLIPQFRGPQALGPVPTAIGVSIAIDKISAAVLNMEESVTISSCDLLVVSVGQMSMSRAINLTQKLWTAGITAEIMYDWSQSQEELQEYCRHHEITYVALVSDKEGSHVKVKSFEKERQTEKRVLETELVDHVLQKLRTKVTDERNGREASDNLAVQNLKGSFSNASGLFEIHGATVVPIVSVLAPEKLSASTRRRYETQVQTRLQTSLANLHQKSSEIEILAVDLPKETILQFLSLEWDADEQAFNTTVKQLLSRLPKQRYLKLVCDEIYNIKVEKKVSVLFLYSYRDDYYRILF
notes: General control nonderepressible 2 (GCN2), human, full length; Homodimer by SEC-MALS (392 kDa measured, 384 kDa theoretical); also called construct A; full-length GCN2
For the molecule B1, in series [2], the “stoichiometry N” value worked out at 2.
